Laboratory results published in patent US20210292393A1 (published 2021).

The binders below were run against SARS-CoV-2 full length spike protein (wild type) (SARS-CoV-2, UniProt P0DTC2 14-1208).

Row | Binder | binding signal, bead assay (fold over isotype)
1 | antibody 264 (antibody, V domains shown) VH: QVHLVESGGGVVQPGRSLRLSCAASGFTLTSYAMHWVRQAPGKGLEWVALISYDGSVKKYAESVKGRITVSGDNSRNTLHLQINTLRADDTAVYYCVRGGVSGPNSFDLWGQGTMVTVSS VL: DVVMTQSPLSLPVTLGQPASISCRSSQSLEYSDGNTYVNWFQQRPGQSPRRLIYQVSNRASGVPDRFSGSGSGTDFTLQISRVEAEDVGIYYCMQGTHWPVTFGQGTKVEIK | 598
2 | antibody 265 (antibody, V domains shown) VH: EVQLVQSGAEVKKPGATVKVSCKFSGDTFSHYYIHWVQQAPGKGLEWMGLVDPQDGESEYAQKFQGKVTITADTSIDTSYLEVTSLRFDDTAFYFCATRGMSGAFDRWGQGTLVTVSS VL: DIVMTQSPDSLAVSLGERATINCKSSQSILSTSNNKNYLAWYQQKPGQPPKLLIYWASTRESGVPDRFSGGGSGTDFTLTISSLQAEDVAVYYCQQYYRTAYTTPIYTFGQGTKLEIK [antibody 265, listing 1 of 2 here] | 1280
3 | antibody 273 (antibody, V domains shown) VH: QVQLVQSGAEVKKPGASVKVSCKVSGYTLTELSMHWVRQAPGKGLEWMGGFDPEDGETIYAQKFQGRVTMTEDTSTDTAYMELSSLRSEDTAVYYCATAPGYYDSSAPQPINWFDPWGQGTLVTVSS VL: QSALTQPASVSGSPGQSITISCTGTSSDVGSYNLVSWYQQHPGKAPKLMIYEVSKRPSGVSNRFSGSKSGNTASLTISGLQAEDEADYYCCSYAGSSTLVFGGGTKLTVL | 924
4 | antibody 276 (antibody, V domains shown) VH: QVQLQESGPGLVKPSQTLSLTCTVSGDSISSGGYYWSWIRQHPGKGLEWIGYIYYSGSAYYNPSLKSRVTISLDTSKNQFSLKLSSVTAADTAVYYCARDSVAGFSIFDYWGQGTLVTVSS VL: SSELTQDPAVSVALGQTVRITCQGDSLRSYYASWYQQKPGQAPVRVIYGKNNRPSGIPDRFSGSSSGNTASLTITGAQAEDEADYYCNSWDSSGNHVVFGGGTKLTVL | 748
5 | antibody 281 (antibody, V domains shown) VH: not shown VL: QSALTQPASVSGSPGQSITISCTGTSSDVGSYNLVSWYQQHPGKAPKLMIYEVSKRPSGVSNRFSGSKSGNTASLTISGLQAEDEADYYCCSYAGSSTHVVFGGGTKLTVL | 570

The binders below were run against full-length trimeric SARS-CoV spike protein (SARS-CoV, UniProt P59594 14-1190).

Row | Binder | median fluorescence intensity, fold over isotype control [fold over isotype]
6 | antibody 259 (antibody, V domains shown) VH: EVQLVQSGAEVKKPGATVKISCKVSGYTFTDYYMHWVQQAPGKGLEWMGLVDPEDGETIYAEKFQGRVTITADTSTDTAYMELSSLRSEDTAVYYCATDLLSWKLYCSGGSCPQMDVWGQGTTVTVSS VL: DIQMTQSPSSLSASVGDRVTITCRASQGIRNDLGWYQQKPGKAPKRLIYAASSLQSGVPSRFSGSGSGTEFTLTISSLQPEDFATYYCLQHNSYPQTFGQGTKLEIK | 1.03
7 | antibody 260 (antibody, V domains shown) VH: EVQLVESGGGLVQPGRSLRLSCAASGFTFDYYAMHWVRQAPGKGLEWVSGISWNSGTIGYADSVKGRFTISRDNAKNSLYLQMNSLRAEDTALYYCAKDSRPSGRYYYGMDVWGQGTTVTVSS VL: not shown | 108
8 | antibody 263 (antibody, V domains shown) VH: EVQLVQSGAEVKKPGATVKISCKVSGYTFTDYYMHWVQQAPGKGLEWMGLVDPEDGETIYAEKFQGRVTITADTSTDTAYMELSSLRSDDTAVYYCTTDLAFTIFGGRRGFDPWGQGTLVTVSS VL: DIQLTQSPSFLSASVGDRVTITCRASQGISSYLAWYQQKPGKAPKLLIYAASTLQSGVPSRFSGSGSGTEFTLTISSLQPEDFATYYCQQLNSYDFGQGTRLEIK | 1.13
9 | antibody 265 (antibody, V domains shown) VH: EVQLVQSGAEVKKPGATVKVSCKFSGDTFSHYYIHWVQQAPGKGLEWMGLVDPQDGESEYAQKFQGKVTITADTSIDTSYLEVTSLRFDDTAFYFCATRGMSGAFDRWGQGTLVTVSS VL: DIVMTQSPDSLAVSLGERATINCKSSQSILSTSNNKNYLAWYQQKPGQPPKLLIYWASTRESGVPDRFSGGGSGTDFTLTISSLQAEDVAVYYCQQYYRTAYTTPIYTFGQGTKLEIK [antibody 265, listing 2 of 2 here] | 1.09
